Experimental data from publication PMC3904721, “The BEL1-like family of transcription factors in potato”.

Key:
NTH1 (tobacco) = assay: two-hybrid; Matchmaker system (Clontech), yeast strain pJ69-2A; StBELs in pACT-AD (GAL4 activation domain), KNOX proteins in pBridge (GAL4-binding domain); co-transformation, selection on -Leu/-Trp/-His/-Ade; lacZ induction quantified by β-galactosidase assay (Miller units), three replicate samples
[1] = target: POTATO HOMEOBOX1 (POTH1) (potato); assay: as above
StBEL5-GST;POTH1-GST = target: T1, StBEL5-GST;POTH1-GST (Solanum tuberosum (potato);Solanum …, UniProt Q8LLE4;P93588 1-688;1-345, |); assay: EMSA; 2 mM Mg2+; 20 mM HEPES pH 7.5, 50 mM KCl, 2 mM MgCl2, 0.5 mM EDTA, 1 mM DTT, 10% glycerol, 0.5% Triton X-100, 20 ng/ul BSA, 50 ng/ul poly(dI-dC), 20 ul, on ice 60 min; 10; settings: protein: recombinant;recombinant; tags: C-terminal GST;C-terminal GST; copies: 1;1; label: 3' biotin; blunt
T1 sequence 1: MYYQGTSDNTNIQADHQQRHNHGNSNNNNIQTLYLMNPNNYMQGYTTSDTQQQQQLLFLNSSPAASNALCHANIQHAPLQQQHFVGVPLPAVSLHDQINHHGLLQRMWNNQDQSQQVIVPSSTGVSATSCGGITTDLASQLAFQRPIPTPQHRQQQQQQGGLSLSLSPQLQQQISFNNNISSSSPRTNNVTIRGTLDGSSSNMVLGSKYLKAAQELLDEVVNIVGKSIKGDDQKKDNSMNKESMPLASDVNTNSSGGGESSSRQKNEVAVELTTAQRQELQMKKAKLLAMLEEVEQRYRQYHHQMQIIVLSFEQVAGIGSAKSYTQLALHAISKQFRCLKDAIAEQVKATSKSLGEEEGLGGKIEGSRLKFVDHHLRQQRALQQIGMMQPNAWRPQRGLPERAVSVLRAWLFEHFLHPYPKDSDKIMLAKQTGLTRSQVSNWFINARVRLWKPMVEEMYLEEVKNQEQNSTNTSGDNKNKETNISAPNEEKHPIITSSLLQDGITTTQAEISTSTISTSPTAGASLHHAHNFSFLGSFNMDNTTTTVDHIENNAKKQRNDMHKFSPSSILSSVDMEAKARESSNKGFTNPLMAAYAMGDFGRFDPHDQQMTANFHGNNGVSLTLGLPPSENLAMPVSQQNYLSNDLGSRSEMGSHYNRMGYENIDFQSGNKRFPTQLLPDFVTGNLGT
T1 sequence 2: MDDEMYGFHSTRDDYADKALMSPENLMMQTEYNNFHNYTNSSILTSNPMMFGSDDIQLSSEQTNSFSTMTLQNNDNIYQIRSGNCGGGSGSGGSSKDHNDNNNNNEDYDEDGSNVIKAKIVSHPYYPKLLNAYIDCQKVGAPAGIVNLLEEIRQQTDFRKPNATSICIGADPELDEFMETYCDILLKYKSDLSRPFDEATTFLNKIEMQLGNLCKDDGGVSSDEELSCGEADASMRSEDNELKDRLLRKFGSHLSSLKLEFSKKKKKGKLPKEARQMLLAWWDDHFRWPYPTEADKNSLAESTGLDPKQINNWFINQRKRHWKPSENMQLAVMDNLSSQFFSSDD

Molecule	beta-galactosidase activity (NTH1 (tobacco))	further results
StBEL13 (from UniProt M1AMS7 1-738) (natural protein)	233 units	–
StBEL33 (from UniProt M1C8Y5 1-505) (natural protein)	–	beta-galactosidase activity [1]: 274 units
StBEL6 (natural protein)	58 Miller units	–
StBEL31 (from UniProt M0ZWL8 1-423) (natural protein)	25 Miller units	–
StBEL34 bait (BEL34S/BEL34A) (dsDNA) DNA 1: CCTTTCAATAAGATTATTGACGGTGACAATACTCGCCGTCAAA DNA 2: TTTGACGGCGAGTATTGTCACCGTCAATAATCTTATTGAAAGG	–	binding result (StBEL5-GST;POTH1-GST): binds
